The target of the test is T1, His-GFP-Rab35-Q67L (rat, UniProt Q5U316 1-201, Q67L).
T1 construct: Rab35, cloned from rat cDNA, constitutively active mutant Q67L; the methods describe only the WT purification; also called constitutively active Rab35-Q67L; active Rab35; source: cloned into pET21b, purified; not shown: GFP, N-terminal, kept
Put plainly: dual-color fluorescence cross-correlation spectroscopy (dcFCCS); both free in solution; 100 nM GFP-Rab35 mixed with 500 nM Cy5-ITGα5-cyto; 20 mM HEPES pH 7.5, 100 mM NaCl, 2 mM MgCl2, 0.1% BSA; 25 °C; 5 min recording, three repeats. The note with it: both partners purified.

Ends that are not written are not given here.

The results in this text go back to publication PMC10397319, “The phosphatidylinositol (4,5)-bisphosphate-Rab35 axis regulates migrasome formation” (Cell Research, 2023).

T1 sequence (Q5U316 whole entry Q67L): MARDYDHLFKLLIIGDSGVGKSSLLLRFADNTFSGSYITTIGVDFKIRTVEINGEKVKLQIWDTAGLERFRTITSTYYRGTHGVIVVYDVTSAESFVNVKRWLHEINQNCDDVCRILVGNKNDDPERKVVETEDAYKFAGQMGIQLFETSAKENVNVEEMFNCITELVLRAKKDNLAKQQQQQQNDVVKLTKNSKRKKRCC

B1: Cy5-ITGα5-cyto-WT (peptide)
peptide: YKLGFFKRSLPYGTAMEKAQLKPPATSDA
modifications: also: Sulfo-Cy5 label, site not given here
notes: also called cytosolic domain of integrin α5; WT peptide; source: synthetic peptide (Synpeptide Co., Ltd.), labelled with Sulfo-Cy5 NHS ester
Regarding B1, the binding result was “binds”.
